Measurements: publication PMC12135937

How the values were obtained:
[1] = target: DIP-β isoform G (Drosophila melanogaster); test: SPR; Biacore T100, CM4 chip; DIPs immobilised by amine coupling (700-900 RU), monomeric Dpr analytes in 3-fold dilution series (0.012 to 9, 27 or 81 µM); 25 °C; 10 mM Tris-HCl pH 7.2, 150 mM NaCl, 1 mM EDTA, 1 mg/mL BSA, 0.01% Tween-20; equilibrium responses fit to a 1:1 model
[2] = target: DIP-β isoform C (Drosophila melanogaster); test: as above
Sequence of DIP-β isoform C (Drosophila melanogaster) (main, as listed by the source): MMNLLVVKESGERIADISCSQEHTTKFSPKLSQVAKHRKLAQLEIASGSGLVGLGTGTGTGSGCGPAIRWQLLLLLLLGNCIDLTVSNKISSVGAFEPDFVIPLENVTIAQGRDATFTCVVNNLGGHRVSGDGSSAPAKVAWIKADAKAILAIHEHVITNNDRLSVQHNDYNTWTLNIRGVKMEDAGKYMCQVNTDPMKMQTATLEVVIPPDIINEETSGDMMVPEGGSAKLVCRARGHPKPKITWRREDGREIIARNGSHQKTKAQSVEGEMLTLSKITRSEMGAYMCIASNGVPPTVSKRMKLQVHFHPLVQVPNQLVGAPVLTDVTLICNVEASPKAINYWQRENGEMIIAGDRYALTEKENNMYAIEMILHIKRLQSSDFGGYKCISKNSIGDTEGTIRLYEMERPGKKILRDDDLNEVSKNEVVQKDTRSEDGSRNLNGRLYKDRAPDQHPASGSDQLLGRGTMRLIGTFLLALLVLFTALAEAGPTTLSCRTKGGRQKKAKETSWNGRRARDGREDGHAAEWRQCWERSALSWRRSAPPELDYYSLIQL

Sequence of DIP-β isoform G (Drosophila melanogaster) (main, as listed by the source): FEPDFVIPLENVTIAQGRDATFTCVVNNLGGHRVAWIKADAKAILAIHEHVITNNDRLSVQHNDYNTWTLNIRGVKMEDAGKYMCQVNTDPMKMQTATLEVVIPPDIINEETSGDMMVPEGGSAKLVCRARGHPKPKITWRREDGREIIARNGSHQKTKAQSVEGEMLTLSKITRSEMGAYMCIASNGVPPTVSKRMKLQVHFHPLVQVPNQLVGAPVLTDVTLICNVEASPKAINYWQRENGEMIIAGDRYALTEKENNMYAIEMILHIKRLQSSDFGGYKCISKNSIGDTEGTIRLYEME

Substance: Dpr8 (natural protein)
- Kd [1]: 0.789 µM
- Kd [2]: 1.32 µM

Substance: Dpr9 (natural protein)
- Kd [1]: 3.41 µM
- Kd [2]: 5.97 µM

Substance: Dpr11 (natural protein)
- Kd [1]: 180 µM
- Kd [2]: 106 µM

Substance: Dpr16 (natural protein)
- Kd [1]: 60 µM
- Kd [2]: 180 µM

Substance: Dpr17 (natural protein)
- Kd [1]: 58.7 µM
- Kd [2]: 176 µM
